# According to paper PMC9712102, “Direct activation of a bacterial innate immune system by a viral capsid protein” (Nature, 2022):
# B1: Gp57, purified (natural protein)
# chain: MAKKYDELDATIVANHLQIQGVKTDASDMGIWTAQELHKIRSTAYEKEYPAGSALRVFPVTNELSDTDKTFEYQTFDKVGYAKIIADYTDDLPTVDALMTSEFGKVFRLGNAFLISIDEIKAGQRTGKSLSTRKANAAQNAHDQLINFLVFKGSKPHKIVSVFDHPNLTKIVSKGWMSQDGNTKFPDVASDELEAAIETIEEVTKGQHRATNILIPPSMRKVLTVRMENTTESYLEYFQKQNGGITIDSIAELEDIDGKGTKGCLVYEKDPMNMSIEIPEAFNMLPAQPKDLHFKVPCTSKCTGLTIYRPFTMVLITGLKKSV
# Biological target: T1, CapRel^SJ46, purified full-length (Salmonella temperate phage SJ46)
# T1 construct: also called purified CapRel^SJ46; source: E. coli BL21 (DE3), pET24d-His10-SUMO-capRel^SJ46, purified (nickel resin, SEC, tag removed with Ulp1); not shown: His10, N-terminal, cleaved; SUMO, N-terminal, cleaved
# Assay: ITC; CapRel^SJ46 (or variant) at 150 μM in the syringe titrated into Gp57 (or variant) at 10 μM in the cell; 25 °C; 50 mM HEPES pH 7.5, 500 mM KCl, 500 mM NaCl, 150 mM imidazole, 10 mM MgCl2, 1 mM TCEP, 0.002% mellitic acid
# Settings: both partners purified
binder,measurement,value
B1,Kd,0.35 µM
